Measurements: patent publication US20200157212A1 (Pfizer, published 2020)

Tests used:
Rat ROBO2 on cells = biological target: T1, Rat ROBO2 on cells (rat, UniProt Q7TPD3 22-1469 (mouse entry)); experiment: cell-based or functional assay
T1 chain: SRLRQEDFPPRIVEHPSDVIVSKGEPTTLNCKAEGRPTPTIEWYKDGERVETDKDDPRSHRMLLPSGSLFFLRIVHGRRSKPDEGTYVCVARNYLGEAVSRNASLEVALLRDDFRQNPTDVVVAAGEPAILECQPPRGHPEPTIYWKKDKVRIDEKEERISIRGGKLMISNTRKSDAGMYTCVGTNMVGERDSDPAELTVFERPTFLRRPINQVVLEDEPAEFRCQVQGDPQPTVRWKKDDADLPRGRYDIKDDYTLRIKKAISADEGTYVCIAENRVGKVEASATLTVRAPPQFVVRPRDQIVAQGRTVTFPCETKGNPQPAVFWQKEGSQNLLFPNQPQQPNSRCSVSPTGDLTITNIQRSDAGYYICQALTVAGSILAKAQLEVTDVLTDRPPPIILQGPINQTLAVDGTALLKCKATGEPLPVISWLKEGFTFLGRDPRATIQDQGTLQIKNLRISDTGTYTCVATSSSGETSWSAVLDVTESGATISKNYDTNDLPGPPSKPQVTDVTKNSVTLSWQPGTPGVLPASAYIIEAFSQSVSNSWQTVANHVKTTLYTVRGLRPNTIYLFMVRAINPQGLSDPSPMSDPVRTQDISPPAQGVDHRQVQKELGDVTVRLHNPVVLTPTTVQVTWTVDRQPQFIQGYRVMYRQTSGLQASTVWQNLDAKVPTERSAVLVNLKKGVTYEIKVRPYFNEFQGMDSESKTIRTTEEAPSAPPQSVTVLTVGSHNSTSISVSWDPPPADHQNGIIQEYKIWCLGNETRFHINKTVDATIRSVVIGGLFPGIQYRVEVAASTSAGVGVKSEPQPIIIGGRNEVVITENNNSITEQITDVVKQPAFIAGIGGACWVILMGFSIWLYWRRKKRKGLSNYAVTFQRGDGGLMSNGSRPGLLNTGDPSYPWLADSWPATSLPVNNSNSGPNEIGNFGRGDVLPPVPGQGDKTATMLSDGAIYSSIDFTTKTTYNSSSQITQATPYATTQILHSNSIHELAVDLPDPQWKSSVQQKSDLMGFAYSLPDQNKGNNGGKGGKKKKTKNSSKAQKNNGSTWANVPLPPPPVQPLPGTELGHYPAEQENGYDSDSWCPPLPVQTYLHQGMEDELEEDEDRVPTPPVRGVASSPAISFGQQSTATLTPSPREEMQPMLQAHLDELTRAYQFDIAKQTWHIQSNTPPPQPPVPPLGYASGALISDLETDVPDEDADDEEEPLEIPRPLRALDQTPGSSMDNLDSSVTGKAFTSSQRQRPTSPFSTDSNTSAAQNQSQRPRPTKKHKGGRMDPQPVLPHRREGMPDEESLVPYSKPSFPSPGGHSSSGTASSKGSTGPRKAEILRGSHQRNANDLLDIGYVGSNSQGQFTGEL

[1] = biological target: T2, Human ROBO1 RSK mutant overexpressed on HEK293 cells (human, UniProt Q9Y6N7 26-1651); experiment: flow cytometry, HEK293 ROBO1-RSK cells
T2 construct: K137R and R139K already in the entry; also called ROBO1-RSK cells
Method: Binding of the antibodies was detected using a secondary fluorochrome conjugated anti-human IgG F(ab′)₂ antibody and samples were analyzed on a Fortessa cytometer (BD Biosciences). The fold ROBO2 selectivity was calculated as the geometric mean fluorescence intensity (Geo MFI) with ROBO2 cells/Geo MFI with ROBO1 cells. A fold change higher than 3 was considered to be ROBO2 specific (Table 2, Fold Selectivity). Some affinity matured clones had increased ROBO1 reactivity, for example Abcs 55, CTI-R2-10 and CTIR2-13.
Based upon several criteria, Abcs25 and Abcs35 were selected for further characterization. Using flow cytometry, improvement in the binding EC₅₀ to human ROBO2 relative to the parental 93H2 was evaluated. Starting at 6.7 nM, 11-point, 3-fold dilution series were made for each antibody and used to stain HEK293 overexpressing human ROBO2 as described above for the ROBO2 fold selectivity (Example 2). […] In addition to measuring improved binding to human ROBO2, it was important to ensure that high affinity binding to both cynomolgus monkey ROBO2 and rat ROBO2 was maintained. Using HEK293 cells overexpressing either cynomolgus monkey ROBO2 or rat ROBO2, the relative dose-dependent binding of 93H2, Abcs25 and Abcs35 was evaluated as described above. High affinity binding to both cynomolgus monkey and rat ROBO2 was maintained in Abcs25 and Abcs35 (Table 4). […] Briefly, Abcs35 was immobilized to 300 resonance units (RU) on a CM5 chip. Association of ROBO2 Ig1-Ig2-His (ROBO2) was measured over 5 minutes and dissociation was followed for a period of 10 minutes.
RSK specificity for Abcs35, along with 93H2 and Abcs25, also was confirmed in a cell-based binding assay using flow cytometry. HEK293 cells overexpressing ROBO2 containing the KSR sequence from ROBO1 (ROBO2-KSR) or ROBO1 containing the RSK sequence from ROBO2 (ROBO1-RSK) were generated. As described above in Example 3, dose-dependent binding was evaluated.

T2 sequence (Q9Y6N7 other isoform, or with tags, fused parts or gaps mutant limits assumed): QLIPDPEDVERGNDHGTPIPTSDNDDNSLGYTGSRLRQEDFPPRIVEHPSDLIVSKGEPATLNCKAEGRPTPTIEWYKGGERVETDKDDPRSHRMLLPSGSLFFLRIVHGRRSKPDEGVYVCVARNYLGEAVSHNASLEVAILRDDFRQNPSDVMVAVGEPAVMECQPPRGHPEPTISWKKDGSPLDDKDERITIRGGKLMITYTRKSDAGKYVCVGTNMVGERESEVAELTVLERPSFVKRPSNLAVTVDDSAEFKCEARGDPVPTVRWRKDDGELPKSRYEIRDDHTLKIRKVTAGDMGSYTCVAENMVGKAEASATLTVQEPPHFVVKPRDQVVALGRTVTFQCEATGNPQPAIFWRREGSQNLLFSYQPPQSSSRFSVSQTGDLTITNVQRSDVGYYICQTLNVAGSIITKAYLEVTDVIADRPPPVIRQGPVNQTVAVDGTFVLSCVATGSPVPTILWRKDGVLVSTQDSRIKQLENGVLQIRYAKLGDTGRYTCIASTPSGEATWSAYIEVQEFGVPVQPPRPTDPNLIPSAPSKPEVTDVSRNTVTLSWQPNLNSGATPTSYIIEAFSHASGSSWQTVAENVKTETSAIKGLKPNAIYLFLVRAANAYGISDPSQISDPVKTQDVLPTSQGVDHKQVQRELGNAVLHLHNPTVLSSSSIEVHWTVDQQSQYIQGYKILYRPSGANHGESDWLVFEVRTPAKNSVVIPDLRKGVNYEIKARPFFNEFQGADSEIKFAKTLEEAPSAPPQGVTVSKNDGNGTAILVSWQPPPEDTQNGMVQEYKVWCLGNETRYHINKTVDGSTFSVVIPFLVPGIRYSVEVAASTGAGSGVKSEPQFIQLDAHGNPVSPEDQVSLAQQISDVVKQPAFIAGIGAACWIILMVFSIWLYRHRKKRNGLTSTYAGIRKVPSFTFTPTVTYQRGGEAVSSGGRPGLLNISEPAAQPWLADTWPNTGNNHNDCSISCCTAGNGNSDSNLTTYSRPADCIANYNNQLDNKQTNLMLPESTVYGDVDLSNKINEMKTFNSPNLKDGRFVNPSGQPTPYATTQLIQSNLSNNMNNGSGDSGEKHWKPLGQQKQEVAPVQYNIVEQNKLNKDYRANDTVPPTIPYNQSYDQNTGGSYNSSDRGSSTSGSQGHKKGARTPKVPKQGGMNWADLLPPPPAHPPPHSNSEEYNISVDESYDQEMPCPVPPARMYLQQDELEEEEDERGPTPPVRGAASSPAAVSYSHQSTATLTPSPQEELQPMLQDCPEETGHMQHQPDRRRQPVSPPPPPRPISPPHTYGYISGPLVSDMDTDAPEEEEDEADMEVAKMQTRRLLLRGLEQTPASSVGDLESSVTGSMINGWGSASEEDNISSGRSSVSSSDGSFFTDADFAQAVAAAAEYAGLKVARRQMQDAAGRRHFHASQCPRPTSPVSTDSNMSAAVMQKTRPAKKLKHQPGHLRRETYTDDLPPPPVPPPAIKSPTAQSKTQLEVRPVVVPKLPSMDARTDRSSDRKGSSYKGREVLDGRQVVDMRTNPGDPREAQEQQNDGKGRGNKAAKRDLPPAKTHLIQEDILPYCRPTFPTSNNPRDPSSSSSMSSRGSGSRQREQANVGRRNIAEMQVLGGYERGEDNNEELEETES

B1: 93H2 (antibody, human IgG1, kappa, V domains shown)
VH: EVQLVQSGAEVKKPGASVKVSCKASGYTFTGYYMHWVRQAPGQGLEWMGWINPNSGATNFPQKFQGRVTMTRDTSITTAYMDLSRLRSDDTAVYYCARESGDDAFDIWGQGTMVTVSS
VL: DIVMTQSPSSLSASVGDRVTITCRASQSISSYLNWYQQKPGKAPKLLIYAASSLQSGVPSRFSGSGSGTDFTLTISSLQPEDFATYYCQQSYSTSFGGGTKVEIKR
notes: also called parental 93H2; 93H2 mAb
Rat ROBO2 on cells
  IC50 (nM), SVZa assay: 1.69 nM
[1]
  EC50: 0.37 nM

B2: Abcs20 (antibody, human IgG1, kappa, V domains shown)
VH: EVQLVQSGAEVKKPGASVKVSCKASGYTFTGYYMHWVRQAPGQGLEWMGWINPKNGDTEFPQKFQGRVTMTRDTSITTAYMDLSRLRSDDTAVYYCARESGDDAFDIWGQGTMVTVSS
VL: DIVMTQSPSSLSASVGDRVTITCRASQSISSYLNWYQQKPGKAPKLLIYAASSLQSGVPSRFSGSGSGTDFTLTISSLQPEDFATYYCQQSVGLSFGGGTKVEIKR
notes: chain-shuffled IgG
Rat ROBO2 on cells
  IC50 (nM), SVZa assay: 0.47 nM

B3: Abcs25 (antibody, human IgG1, kappa, V domains shown)
VH: EVQLVQSGAEVKKPGASVKVSCKASGYTFTGYYMHWVRQAPGQGLEWMGWINPKDGDTEFPQKFQGRVTMTRDTSITTAYMDLSRLRSDDTAVYYCARESGDDAFDIWGQGTMVTVSS
VL: DIVMTQSPSSLSASVGDRVTITCRASQSISSYLNWYQQKPGKAPKLLIYAASSLQSGVPSRFSGSGSGTDFTLTISSLQPEDFATYYCQQSVGLSFGGGTKVEIKR
notes: chain-shuffled IgG
Rat ROBO2 on cells
  IC50 (nM), SVZa assay: 0.31 nM
[1]
  EC50: 0.061 nM

B4: Abcs35 (antibody, human IgG1, kappa)
heavy: EVQLVQSGAEVKKPGASVKVSCKASGYTFTGYYMHWVRQAPGQGLEWMGWINPKNGDTEFPQKFQGRVTMTRDTSITTAYMDLSRLRSDDTAVYYCARESGDDAFDIWGQGTMVTVSSASTKGPSVFPLAPSSKSTSGGTAALGCLVKDYFPEPVTVSWNSGALTSGVHTFPAVLQSSGLYSLSSVVTVPSSSLGTQTYICNVNHKPSNTKVDKKVEPKSCDKTHTCPPCPAPEAAGAPSVFLFPPKPKDTLMISRTPEVTCVVVDVSHEDPEVKFNWYVDGVEVHNAKTKPREEQYNSTYRVVSVLTVLHQDWLNGKEYKCKVSNKALPAPIEKTISKAKGQPREPQVYTLPPSREEMTKNQVSLTCLVKGFYPSDIAVEWESNGQPENNYKTTPPVLDSDGSFFLYSKLTVDKSRWQQGNVFSCSVMHEALHNHYTQKSLSLSPGK
light: DIVMTQSPSSLSASVGDRVTITCRASQSISSYLNWYQQKPGKAPKLLIYAASSLQSGVPSRFSGSGSGTDFTLTISSLQPEDFATYYCQQSVGLFFGGGTKVEIKRTVAAPSVFIFPPSDEQLKSGTASVVCLLNNFYPREAKVQWKVDNALQSGNSQESVTEQDSKDSTYSLSSTLTLSKADYEKHKVYACEVTHQGLSSPVTKSFNRGEC
notes: fully human IgG1; VH of Ab96 with VL of Ab123
Rat ROBO2 on cells
  IC50 (nM), SVZa assay: 0.039 nM
[1]
  EC50: 0.074 nM

B5: Abcs40 (antibody, human IgG1, kappa, V domains shown)
VH: EVQLVQSGAEVKKPGASVKVSCKASGYTFTGYYMHWVRQAPGQGLEWMGWINPKDGDTEFPQKFQGRVTMTRDTSITTAYMDLSRLRSDDTAVYYCARESGDDAFDIWGQGTMVTVSS
VL: DIVMTQSPSSLSASVGDRVTITCRASQSISSYLNWYQQKPGKAPKLLIYAASSLQSGVPSRFSGSGSGTDFTLTISSLQPEDFATYYCQQSVGLFFGGGTKVEIKR
notes: chain-shuffled IgG
Rat ROBO2 on cells
  IC50 (nM), SVZa assay: 0.11 nM

B6: CTIR2-15 (antibody, human IgG1, kappa, V domains shown)
VH: EVQLVQSGAEVKKPGASVKVSCKASGYTFRGYAMHWVRQAPGQGLEWMGWIDPRTGLTKFPQKFQGRVTMTRDTSITTAYMDLSRLRSDDTAVYYCARESGDDAFDIWGQGTMVTVSS
VL: DIVMTQSPSSLSASVGDRVTITCRASQKISSYLNWYQQKPGKAPKLLIYAASSLQYGVPSRFSGSGSGTDFTLTISSLQPEDFATYYCQQSVGLSFGGGTKVEIKR
notes: CDR-shuffled IgG
Rat ROBO2 on cells
  IC50 (nM), SVZa assay: 0.02 nM

B7: CTIR2-16 (antibody, human IgG1, kappa, V domains shown)
VH: EVQLVQSGAEVKKPGASVKVSCKASGYTFRGYAMHWVRQAPGQGLEWMGWIDPRTGLTKFPQKFQGRVTMTRDTSITTAYMDLSRLRSDDTAVYYCARESGDDAFDIWGQGTMVTVSS
VL: DIVMTQSPSSLSASVGDRVTITCRASQKISSYLNWYQQKPGKAPKLLIYAASSLQYGVPSRFSGSGSGTDFTLTISSLQPEDFATYYCQQSVGLFFGGGTKVEIKR
notes: CDR-shuffled IgG
Rat ROBO2 on cells
  IC50 (nM), SVZa assay: 0.41 nM

B8: Abcs55 (antibody, human IgG1, kappa, V domains shown)
VH: EVQLVQSGAEVKKPGASVKVSCKASGYTFTGYYMHWVRQAPGQGLEWMGWINPKDGDTEFPQKFQGRVTMTRDTSITTAYMDLSRLRSDDTAVYYCARESGDDAFDIWGQGTMVTVSS
VL: DIVMTQSPSSLSASVGDRVTITCRASQSISSYLNWYQQKPGKAPKLLIYAASSLQYGVPSRFSGSGSGTDFTLTISSLQPEDFATYYCQQSYSTSFGGGTKVEIKR
notes: chain-shuffled IgG
Rat ROBO2 on cells
  IC50 (nM), SVZa assay: 0.98 nM

B9: CTIR2-14 (antibody, human IgG1, kappa, V domains shown)
VH: EVQLVQSGAEVKKPGASVKVSCKASGYTFRGYAMHWVRQAPGQGLEWMGWIDPRTGLTKFPQKFQGRVTMTRDTSITTAYMDLSRLRSDDTAVYYCARESGDDAFDIWGQGTMVTVSS
VL: DIVMTQSPSSLSASVGDRVTITCRASQKISSYLNWYQQKPGKAPKLLIYAASSLQYGVPSRFSGSGSGTDFTLTISSLQPEDFATYYCQQSLELGFGGGTKVEIKR
notes: CDR-shuffled IgG
Rat ROBO2 on cells
  IC50 (nM), SVZa assay: 0.11 nM
